Results from paper PMC5610937 (Journal of molecular biology, 2017).

B1: XBR1-402 in chimeric rabbit/human IgG1 format (antibody, V domains shown)
VH: QEQQKESGGGLFKPTDTLTLTCTASGFDISSYYMSWVRQAPGNGLEWIGAIGISGNAYYASWAKSRSTITRNTNLNTVTLKMTSLTAADTATYFCARDHPTYGMDLWGPGTLVTVSS
VL: SYELTQLPSVSVSLGQTARITCEGNNIGSKAVHWYQQKPGLAPGLLIYDDDERPSGVPDRFSGSNSGDTATLTISGAQAGDEADYYCQVWDSSAYVFGGGTQLTVT
B2: chimeric rabbit/human anti-human ROR2 Fab ERR2-TOP35 (Fab, V domains shown)
VH: QSVKESEGGLFKPMDTLTLTCTVSGFSLNTYGVSWVRQAPGNGLEWIGAVGSSGATNYASWAKSRSTITRNTNENTVTLKMTSLTAADTATYFCARDGYYSSGWGPYFSIWGPGTLVTVSS
VL: SFVLTQPASVQVNLGQTVSLTCTAETLRSSYASWYQQKPGQAPVLLIYRDTSRPSGVPDRFSGSSSGNTATLTISGAQAGDEADYYCATSDGSGSRYYVFGGGTQLTVT

Key:
[1] = biological target: human ROR2 on the Retrogenix HEK293 cell microarray (Homo sapiens (Human)., UniProt Q01974); test: Retrogenix cell microarray
[2] = biological target: human ROR1 ectopically and stably expressed on mouse pre-B cell line 63-12 (Homo sapiens (Human)., UniProt Q01973); test: flow cytometry on cells
[3] = biological target: mouse ROR2 extracellular domains displayed on HEK293F cells (Mus musculus (Mouse)., UniProt Q9Z138); test: flow cytometry on cells
Fc-hROR2 protein = Fc-hROR2 protein (Homo sapiens (Human)., UniProt Q01974); test: SPR

Sequence of mouse ROR2 extracellular domains displayed on HEK293F cells (Q9Z138 34-403): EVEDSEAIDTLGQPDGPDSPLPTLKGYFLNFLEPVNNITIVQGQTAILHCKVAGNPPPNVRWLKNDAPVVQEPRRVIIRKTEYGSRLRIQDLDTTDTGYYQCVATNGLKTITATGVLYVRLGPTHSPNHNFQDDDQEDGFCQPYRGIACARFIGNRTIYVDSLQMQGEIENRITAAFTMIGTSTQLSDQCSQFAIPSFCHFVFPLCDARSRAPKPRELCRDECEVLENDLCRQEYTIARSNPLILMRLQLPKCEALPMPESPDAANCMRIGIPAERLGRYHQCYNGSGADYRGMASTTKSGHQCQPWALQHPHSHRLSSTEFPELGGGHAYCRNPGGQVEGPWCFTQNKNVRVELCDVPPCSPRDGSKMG

| Binder | binding result [1] | binding result [2] | binding result [3] | Kd (Fc-hROR2 protein) |
| --- | --- | --- | --- | --- |
| B1 | no binding (tested: 2 μg/mL) |  |  |  |
| B2 |  | no binding | binds | 43.3 nM |
